Assay results from the nanobody polyreactivity screen of Harvey et al. (2022).

Experiment: yeast display, Sf9 membrane polyspecificity reagent, FACS + sequencing; frameworks hold sequencing errors
Summary of the method: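 Nanobodies came from a synthetic yeast display library in Saccharomyces cerevisiae BJ5465, induced with galactose for 36–48 hours and stained for 1 hour at 4 °C with 10% biotinylated, detergent-solubilized Sf9 membrane reagent. Cells were enriched on streptavidin microbeads and then FACS-sorted, with low and high (top ~1%) gates set on anti-HA fluorescence for expression and streptavidin fluorescence for reagent binding. Each polyreactivity label reflects the gate a clone came from. Genes were amplified by colony PCR, sequenced by MiSeq 2 × 250 and filtered by CDR length.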

| Sequence | polyreactivity (PSR sort gate) |
| --- | --- |
| QVQLVESGGGLVQAGGSLRLSCAASGRTFVKNAMGWYIQAPGKERELVAAISYRGGSTYYADSVKGRFTISRDNAKNTVYLQMNSLKPEDTAVYYCAAQYLYYRYGGFGYWGQGTQVTVSS | high polyreactivity |
| QVQLVESGGGLVQAGGSLRLSCAASGRTFVLYAMGWYRQAPGKERELVAAIRQSDVSTYYADSVKGRFTISRDNAKNTVFLQMNSLKPEDTAVFYCAARNRYRRRYYYWGQGTQVTVSS | high polyreactivity |
| QVQLVESGGGLVQAGGSLRLSCAASGRTFVNNAMGRYREAPGKERELVAAITTSAGSTYYADSVKGRFTISRDNAKNTVYLQMNSLNPEDTAVYYCAAVVWKKRYFDLEYWGQGTQVTVSS | low polyreactivity |
| QVQLVESGGGLVQAGGSLRLSCAASGRTFVNNAMGWYRQAPGKERELVASIRYIGGSTYYADSVKGRFTISRDNEKNTVYLQMNSLKPEDTAVYYCAALAGRRPYDYWGQGTQVTVSS | high polyreactivity |
| QVQLVESGGGLVQAGGSLRLSCAASGRTFVNYAMGWYRQAPGKERELVAAISGGGGTNYADSVKGRFTISRDNAKNTVYLQMNSLKPEDTAVYYCAADTNGYEFDYWGQGTQVTVSS | low polyreactivity |
| QVQLVESGGGLVQAGGSLRLSCAASGRTFVPNAMGWYRQAPGKERELVAAISWSGDSTYYADSVKGRFTISRDNAKNTVYLQMNSLKPEDTAVYYCAARYEFFYKAFDVDSWGQGTQVTVSS | low polyreactivity |
| QVQLVESGGGLVQAGGSLRLSCAASGRTFVPYAMGWYRQAPGKERELVAAINSGTRTYADSVKGRFTISRDNAKNTVYLQMNSLKPEDTAVYYCARRGYYYDYWGQGTQVTVSS | high polyreactivity |
| QVQLVESGGGLVQAGGSLRLSCAASGRTFVPYAMGWYRQAPGKERELVAAITWSGGRTRYADSVKGRFTISRDNAKNTVFLQMNSLKPEDTAVYYCARYYWLYSSSYDYWGQGTQVTVSS | high polyreactivity |
| QVQLVESGGGLVQAGGSLRLSCAASGRTFVPYAMGWYRQAPWKERELVASISSSGGSTYYADSVKGRFTISRDNAKNTVYLQMNSLKPEDTAVYYCATADRWSSSYYRSVRWYHYDYWGQGTQVTVSS | low polyreactivity |
| QVQLVESGGGLVQAGGSLRLSCAASGRTFVPYTMGWYRQAPGKERELVAAISRSGARTYYADSVKGRFTISRDNAKNTVYLQMNSLKPEDTAVYYCVVIARYGYDYWGQGTQVTVSS | high polyreactivity |
| QVQLVESGGGLVQAGGSLRLSCAASGRTFVQYAMGWYRQAPGKERELVAAISDRGGNTYYADSVKGRFTISRDNAKNTVYLQMNSLKPEDTAVYYCAAKIALDNDYWGQGTQVTVSS | high polyreactivity |
| QVQLVESGGGLVQAGGSLRLSCAASGRTFVRNAMGWYRQAPGKERELVAAITRSGGSTYYADSVKGRFTISRDNAKNTVYLQMNSLKPEDTAVYYCSARPPYRVGIVPLGRREYYWGQGTQVTVSS | high polyreactivity |
| QVQLVESGGGLVQAGGSLRLSCAASGRTFVRYAMGWYRQAPGKEREFVAAISWSTGSTYFADSVKGRFTISRDNAKNTVYLQMNSLKPEDTAVYYCAADGYTTYWLLYEYDYWGQGTQVTVSS | low polyreactivity |
| QVQLVESGGGLVQAGGSLRLSCAASGRTFVRYAMGWYRQATGNERELVAAISTSGGNTYYADSVKGRFSISRDNAKNTVYLQMNSLKPEDTAVYYCANDRGPNAKFDDWGQGTQVTVSS | low polyreactivity |
| QVQLVESGGGLVQAGGSLRLSCAASGRTFVSNAMGWYRQAPGKERELVAGINWTDDSTYYADSVKGRFTISRDNAKNTVYLQMNSLKPEDTAVYYCAADSWEFAWPRFDYWGQGTQVTVSS | low polyreactivity |
| QVQLVESGGGLVQAGGSLRLSCAASGRTFVSTAMGWYRQAPGKERELVAGMSQRGGSTYYADSVKGRFTISRDNAKNTVYLHMNSMKPEDTAVYYCNAVSRAYFYGAYGPYTRFNYWGQGTQVTVSS | high polyreactivity |

| Sequence | polyreactivity (PSR sort gate) |
| --- | --- |
| QVQLVESGGGLVQAGGSLRLSCAASGRTFVSYAMGWYRQAPGKERELVAAISSSGGSTYYADSVKGRFTISRDNAKNTVYLQMNSLKPEDTAVYYCAADTTTRAYVEMDYWGQGTQVTVSS | low polyreactivity |
| QVQLVESGGGLVQAGGSLRLSCAASGRTFVSYDMGWYRQAPGKERELVATISWTAGSTYYADSVKGRFTISRDNAKNTVYLQMNSLKPEDTAVYYCAADVFYSIYDYWGQGTQVTVSS | low polyreactivity |
| QVQLVESGGGLVQAGGSLRLSCAASGRTFVVNAKGWYRQAPGKEREFVAAISYRGDSTYYSDSVKGRFTISRDNAKNTVYLQMNSLKPEDTAVYYCAARVLGPGRRFYYWVQGTQVTVSS | high polyreactivity |
| QVQLVESGGGLVQAGGSLRLSCAASGRTFVVNDMGWYRQAPGKERELVAAINYNAGSTFYADSVKGRFTISRYNAKKTVYYQMNSLKPEDTAVYYCATDVYGYVEYDYWGQGTQVTVSS | low polyreactivity |
| QVQLVESGGGLVQAGGSLRLSCAASGRTFVYNAMGWYRQAPGKEREFVAAISDGGGDTYYADSVKGRFTISRDNAKNTVYLQMNSLKPEDTAVYYCNVEWQQPGYAFDYWGQGTQVTVSS | low polyreactivity |
| QVQLVESGGGLVQAGGSLRLSCAASGRTFVYNAMGWYRQAPGKERELVAAISFGGGNTYYADSVKGRFTISRDNAKNTVYLQMNSLKPEDTAVYYCAKAYIGYWGASWYYAYDYWGQGTQVTVSS | low polyreactivity |
| QVQLVESGGGLVQAGGSLRLSCAASGRTFVYNAMGWYRQAPGKERELVAAITTNGGSTYYADSVKGRFTISRDNSKNTVYLQMNSLKPEDTAVYYCAADYSLPWSWLYEYWGQGTQVTVSS | low polyreactivity |
| QVQLVESGGGLVQAGGSLRLSCAASGRTFVYNGMGSYRQAPGKERELVAAISGSGGSTYYADSVKGRFTISRDNAKNTVYLQMNSLKPEDTAVYYCATRQGYRLYYWGQGTQVTVSS | high polyreactivity |
| QVQLVESGGGLVQAGGSLRLSCAASGRTFVYNTMGWYRQAPGKERELVASISSTGGNTYYSDSVKGRFTISRDNAKNTVYLQMNSLKPEDTAVYYCAAGAWTRGQYYYWGQRTQVTVSS | high polyreactivity |
| QVQLVESGGGLVQAGGSLRLSCAASGRTFVYYAMGWYRQAPGKEREFVAAISRSGGRTSYADSVKGRFTISRDNAKNTVYLQMNSLKPEDTAVYYCAAEKRTQPTSREYYWVQGTQVTVSS | high polyreactivity |
| QVQLVESGGGLVQAGGSLRLSCAASGRTFVYYAMGWYRQAPGKERELVARISYSGGSTYYADSVKGRFTISRDNAKKTVYLQMNSLKPEDTAVYYCSQAGYSPVYGYWGQGTQVSVSS | high polyreactivity |
| QVQLVESGGGLVQAGGSLRLSCAASGRTFVYYAMGWYRQAPGKERELVASISSVGTTKYADSVQGRFTISRANAKNTVYLQMNSLKPEDTAVYYCAAVPLSRNIFDSWGQGTQVTVSS | low polyreactivity |
| QVQLVESGGGLVQAGGSLRLSCAASGRTFVYYDMGWSRPAPGKERELVAAIDSSGSTYYADSVKGRFTISRDNAKNTVYLQMNSLKPEDTAVYYCAAGYWFFPYWYDYWGQGTQVTVSS | high polyreactivity |
| QVQLVESGGGLVQAGGSLRLSCAASGRTFWANAMGWYRPAPGKERELVAAITIGGRTYYADSVKGRFTISRDNAKNTVYLQMNSLKPEDTAVYYCNAGTRRPFPAESGYWGQVTQVTVSS | low polyreactivity |
| QVQLVESGGGLVQAGGSLRLSCAASGRTFWAYAMGWYRPAPGKERELVSAITTSGGSTNYADSVKGRFTISRDNAKNTVYLHMIRLKPEDTAVYYCNADPTYHVVNGVGYWGQGTQVTVSS | low polyreactivity |
| QVQLVESGGGLVQAGGSLRLSCAASGRTFWDYAMGWYRQAPGKEREFVAAINTSGGRTYYADSVKGRFTISRDNAKNTVYLQMNSLKPEDTAVYYCAARTRDRAYDSWGQGTQVTVSS | high polyreactivity |
